Data as given in patent US20040191240.

Molecular target: recombinant full-length p21 (Santa Cruz)
Sequence (chain, as listed by the source): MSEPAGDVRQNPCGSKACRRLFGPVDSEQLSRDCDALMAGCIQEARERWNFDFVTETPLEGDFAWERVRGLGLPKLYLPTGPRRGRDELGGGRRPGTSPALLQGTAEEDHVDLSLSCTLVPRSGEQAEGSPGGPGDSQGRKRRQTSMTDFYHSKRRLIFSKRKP

B1: Rho kinase fragment (aa 1-543, Upstate Biotechnology) (protein)
chain: MSRPPPTGKMPGAPETAPGDGAGASRQRKLEALIRDPRSPINVESLLDGLNSLVLDLDFPALRKNKNIDNFLNRYEKIVKKIKGLQMKAEDYDVVKVIGRGAFGEVQLVRHKASQKVYAMKLLSKFEMIKRSDSAFFWEERDIMAFANSPWVVQLFYAFQDDRYLYMVMEYMPGGDLVNLMSNYDVPEKWAKFYTAEVVLALDAIHSMGLIHRDVKPDNMLLDKHGHLKLADFGTCMKMDETGMVHCDTAVGTPDYISPEVLKSQGGDGFYGRECDWWSVGVFLYEMLVGDTPFYADSLVGTYSKIMDHKNSLCFPEDAEISKHAKNLICAFLTDREVRLGRNGVEEIRQHPFFKNDQWHWDNIRETAAPVVPELSSDIDSSNFDDIEDDKGDVETFPIPKAFVGNQLPFIGFTYYRENLLLSDSPSCRENDSIQSRKNEESQEIQKKLYTLEEHLSNEMQAKEELEQKCKSVNTRLEKTAKELEEEITLRKSVESALRQLEREKALLQHKNAEYQRKADHEADKKRNLENDVNSLKDQLEDL
- Rho-kinase activity toward S6 kinase substrate peptide ([gamma-32P]ATP, scintillation counting), in vitro: the estimated ICso value was 1.43 nM
